Laboratory results reported in paper PMC2767407.

Substrate: CN(C)C(=N)NCCC[C@H](N)C(=O)O
Assay: enzyme kinetics of refolded recombinant enzyme
Type: biochemical, Homo sapiens
Details: authors' own initial, unpublished results; assay conditions not told

B1: recombinant human DDAH-2 (Homo sapiens) (protein)
chain: MGTPGEGLGRCSHALIRGVPESLASGEGAGAGLPALDLAKAQREHGVLGGKLRQRLGLQLLELPPEESLPLGPLLGDTAVIQGDTALITRPWSPARRPEVDGVRKALQDLGLRIVEIGDENATLDGTDVLFTGREFFVGLSKWTNHRGAEIVADTFRDFAVSTVPVSGPSHLRGLCGMGGPRTVVAGSSDAAQKAVRAMAVLTDHPYASLTLPDDAAADCLFLRPGLPGVPPFLLHRGGGDLPNSQEALQKLSDVTLVPVSCSELEKAGAGLSSLCLVLSTRPHS
**Q.** For B1, which Km is on record?
**A.** 16 µM
